# Results as given in patent US6472171.
# Target: human α2(I) procollagen (human) (UniProt P08123)
# Test: cell-based or functional assay
# Chain of human α2(I) procollagen (human) (P08123 23-1366 limits assumed): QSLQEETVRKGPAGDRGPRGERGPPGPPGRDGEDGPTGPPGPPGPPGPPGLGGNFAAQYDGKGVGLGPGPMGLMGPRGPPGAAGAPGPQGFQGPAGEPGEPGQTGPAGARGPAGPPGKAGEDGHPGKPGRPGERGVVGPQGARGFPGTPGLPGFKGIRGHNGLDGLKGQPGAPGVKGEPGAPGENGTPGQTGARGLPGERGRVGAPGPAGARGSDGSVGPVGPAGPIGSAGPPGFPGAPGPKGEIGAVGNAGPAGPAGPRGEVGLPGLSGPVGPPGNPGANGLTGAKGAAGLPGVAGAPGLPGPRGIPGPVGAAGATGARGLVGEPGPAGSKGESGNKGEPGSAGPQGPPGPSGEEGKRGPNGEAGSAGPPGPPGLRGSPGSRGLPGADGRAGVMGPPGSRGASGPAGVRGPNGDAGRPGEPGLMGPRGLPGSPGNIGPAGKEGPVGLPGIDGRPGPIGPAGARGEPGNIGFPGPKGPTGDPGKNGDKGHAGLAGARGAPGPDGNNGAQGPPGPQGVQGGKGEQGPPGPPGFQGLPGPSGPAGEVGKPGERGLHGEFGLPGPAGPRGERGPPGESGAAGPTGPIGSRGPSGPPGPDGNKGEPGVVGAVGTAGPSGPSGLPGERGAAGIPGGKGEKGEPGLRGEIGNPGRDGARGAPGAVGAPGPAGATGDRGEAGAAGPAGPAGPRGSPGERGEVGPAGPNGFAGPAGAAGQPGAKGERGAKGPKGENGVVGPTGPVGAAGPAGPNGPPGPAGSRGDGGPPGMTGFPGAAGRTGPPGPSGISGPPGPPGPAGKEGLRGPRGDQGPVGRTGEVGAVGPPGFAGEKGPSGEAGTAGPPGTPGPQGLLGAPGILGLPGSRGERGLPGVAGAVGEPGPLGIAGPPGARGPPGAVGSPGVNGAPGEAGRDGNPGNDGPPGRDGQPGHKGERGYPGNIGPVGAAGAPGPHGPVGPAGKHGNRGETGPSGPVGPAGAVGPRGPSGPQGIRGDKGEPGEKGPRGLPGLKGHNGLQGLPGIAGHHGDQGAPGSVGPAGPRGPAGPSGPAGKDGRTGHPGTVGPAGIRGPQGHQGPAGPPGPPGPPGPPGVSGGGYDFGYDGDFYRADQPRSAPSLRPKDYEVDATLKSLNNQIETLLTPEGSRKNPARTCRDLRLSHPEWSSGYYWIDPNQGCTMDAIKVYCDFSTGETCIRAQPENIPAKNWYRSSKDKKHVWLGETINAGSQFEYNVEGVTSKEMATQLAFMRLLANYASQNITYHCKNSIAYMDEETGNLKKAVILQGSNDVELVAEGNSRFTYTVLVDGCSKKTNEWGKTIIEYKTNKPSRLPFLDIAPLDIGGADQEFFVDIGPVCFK
substance,measurement,value
human α1(I) procollagen (from UniProt P02452 23-1464),resistance to pepsin digestion at increasing temperatures (SDS-PAGE),38 ° C.
